Source: the Human Domainome abundance scans (Beltran et al. 2025)

B1: PDZ and LIM domain protein 2, residues 284 to 339; numbered along this chain, Q96JY6 (parent)
chain: HTCEKCSTSIANQAVRIQEGRYRHPGCYTCADCGLNLKMRGHFWVGDELYCEKHAR
B2: Chromodomain-helicase-DNA-binding protein 4, residues 623 to 675; numbered along this chain, Q14839 (parent)
chain: MIHRILNHSVDKKGHVHYLIKWRDLPYDQASWESEDVEIQDYDLFKQSYWNHR

Variants of: B1
Assay: abundance fitness (aPCA) (normalised: wild type 0, dead -1); higher = more abundant; growth selection in yeast, the domain comes from the species named
Conditions: Homo sapiens

Abundance fitness of substitutions, site by site:
I10: N -0.119; V -0.187; S -0.505; K -0.488; M -0.425; C -0.062; Y -0.809; W -0.488; H -0.735; E 0.006; G -0.312; R -0.445; T -0.14; D -0.041; Q -0.242; L -0.413
H1: D -0.317; Q -0.669; G -0.247; A -0.24; M 0.268; R -0.222
Q13: V -0.327; E 0.194; H -0.767; R -0.826; D 0.448; F -0.049; S -0.128; C -0.216; L -0.36; T -0.11; A -0.399; K -0.501; G 0.098; P -0.227; M -0.223; I -0.778
C6: Q -0.199; Y -0.743; K -0.264; F -0.667; H -0.535; E -0.382; A -0.408; P -0.336; I -0.135; G -0.437; L -0.597; R -0.266; M -0.523; N -0.508; D -0.15; V -0.282; W -0.872; T -0.48
E4: N 0.14; W -0.276; P -0.592; I -0.331; M 0.093; K -0.362; C 0.033; Q -0.16; A -0.245; G -0.028; H 0.069; D -0.063; R -0.624; F 0.075; S 0.014; Y 0.056; L -0.473
A11: T -0.016; Q -0.253; Y -0.643; S 0.196; F -1.16; P 0.118; L -0.827; N 0.351; G 0.017; R -0.231; C -0.446; H -0.085; M -0.521; D 0.321
S7: R -0.216; D -0.55; P -0.613; W -0.641; L -0.09; Y -0.614; V -0.16; N -0.294; C 0.023; F -0.137; E -0.878; I -0.047; G 0.018; H -0.212; T 0.008; M -0.083; A 0.085
T8: E 0.387; K 0.255; Y 0.119; S 0.139; V 0.189; G 0.153; A 0.308; L 0.004; N 0.221; I -0.361; W -0.068; F -0.111; H 0.173; D 0.232; Q 0.056; M -0.099
K5: I 0.463; C -0.068; W -0.553; S -0.108; L 0.049; P -0.267; Q 0.165; D 0.181; V 0.055; N 0.269; G -0.036; M -0.05; Y 0.508; T 0.104; R 0.261; E 0.038; A 0.157; F -0.467
T2: Q -0.339; Y -0.31; P -0.66; M -0.51; V -0.685; A -0.578; C -0.323; G -0.899; D -0.305; R -0.389; K 0.003; N 0.177; S -0.559; L -0.834; I 0.208; H 0.144; E -0.597
C3: E -0.986; I -0.471; A -1.1; Y -0.436; G -1.17; H -0.399; L -0.978; S -0.693; M -0.856; K -0.45; F -0.483; P -0.968; R -0.847; Q -0.82; W -1.05; D -1.02; T -0.586; V -0.983
S9: W -1.01; Y -1.02; P -0.376; N -0.058; G -0.08; Q -0.079; V -0.485; L -0.767; I -0.764; F -1.09; M -0.62; A 0.199; D 0.277; R -0.34; C -0.365; H -0.539; T -0.271
N12: I 0.021; C -0.135; H 0.219; M -0.123; Y -0.622; F -0.494; A -0.096; W -0.78; S -0.028; V -0.206; K -0.295; Q -0.044; G -0.408; D 0.595; T 0.14; E 0.498; R -0.73

Variants of: B2
Assay: as above
Conditions: Homo sapiens

Abundance fitness of substitutions, site by site:
S48: D 0.043; L -0.01; M 0.016; Y 0.093; V -0.011; C -0.083; P -0.628; A 0.07; R 0.14; Q -0.053; K 0.043; F -0.236; E 0.067; H 0.119; G -0.206; T -0.124; W -0.412
R53: P -0.481; T -0.221; Q 0.025; V -0.09; E -0.189; W -0.044; Y 0.011; L -0.104; C -0.086; N -0.313; S -0.141; D -0.161; H -0.185; K -0.22
W50: C -0.793; A -0.808; R -0.725; K -0.511; N -0.766; P -0.824; T -0.733; Q -0.959; V -0.783; I -0.813; E -0.879; D -1.23; G -0.813; F -0.861; Y -0.554; H -0.779; L -0.811; S -0.653
K46: Q -0.485; F -0.917; H -0.909; L -0.593; T -0.748; R -0.796; P -0.875; W -0.856; E -0.734; Y -0.856; N -0.886; I -0.465; S -0.838; G -0.846
Q47: G -0.483; S -0.05; T 0.022; I 0.132; Y -0.343; E -0.052; N 0.087; R -0.084; L -0.374; W -0.475; A -0.114; M -0.452; D -0.289; F -0.318; C -0.423; H -0.051; P -0.804; K 0.239
Y49: G -0.811; Q -0.997; M -0.747; I -1.13; R -1; F -0.7; K -0.658; W -0.951; P -0.696; L -0.751; T -0.916; A -0.783; V -0.877; C -1.01; S -0.953
H52: L -0.017; D -0.177; I -0.29; P -0.363; G 0.022; N 0.023; C -0.103; S 0.106; E 0.139; Y -0.254; T 0.185; M -0.18; K 0.088; R 0.058; V -0.016
N51: Q 0.004; T 0.037; K -0.167; C -0.428; A 0.014; H -0.23; M 0.01; F -0.11; D 0.01; I -0.564; V -0.341; L -0.194; S -0.079; W -0.45; R 0.105; Y -0.267
